Measurements published in paper PMC5663709 (Scientific Reports, 2017).

B1: S40 IgG (antibody, V domains shown)
VH: EVQLVESGGGLVQPGGSLRLSCAASGFTIGDFGIHWVRQAPGKGLEWVAGIWPFGGYTYYADSVKGRFTISADTSKNTAYLQMNSLRAEDTAVYYCARFVNWDGDYMDYWGQGTLVTVSS
VL: DIQMTQSPSSLSASVGDRVTITCRASQDVGFYVAWYQQKPGKAPKLLISWSSYLYSGVPSRFSGSGSGTDFTLTISSLQPEDFATYYCQQYYNYPLTFGQGTKVEIK
notes: copies: 2 + 2
B2: S40 Fab (Fab, V domains shown)
VH: B1 VH
VL: B1 VL

How the values were obtained:
[1] = biological target: recombinant hemagglutinin (HA) trimer of H1N1 A/California/07/2009, ectodomain (Influenza A virus A/California/07/2009 …, UniProt C3W5X2); assay: ELISA; conditions: both partners purified
[2] = biological target: purified monomeric HA of H1N1 CA/09 (thrombin-digested ectodomain) (Influenza A virus A/California/07/2009 …, UniProt C3W5X2); assay: crystal structure; conditions: both partners purified

Row | Binder | binding result [1] | binding result [2]
1 | B1 | binds | –
2 | B2 | – | binds
